Patent publication US20260258149A1 (BIONTECH, published 2026)
Changes are numbered by the printed parent chain. Values joined by “and” are separate entries in the source; they are usually repeats but may differ in a detail not shown here. Equal values may be shown once. Values belong to the binder of their own block, whether it stands above or below them.

Assays:
[1] = molecular target: T1, Bovine Submaxillary Mucin (BSM) (bovine); experiment: ELISA on BSM-coated wells (3 ug/mL), normalised dose response
T1 construct: Glycoprotein carrier of STn; also called BSM mucin; non-biotinylated BSM
Procedure: (§1) In order to evaluate the antibody binding to the target antigen STn, we employed an in vitro assay using a mucin that naturally expresses STn: Bovine Submaxillary Mucin (BSM). The humanized variants (V1, V2 and V3) were incubated using BSM-coated wells and binding was evaluated using ELISA assay.
(§2) An ELISA-assay was performed using Bovine Submaxillary Mucin (BSM). 96 well plates were coated using BSM [3 ug/mL], dissolved in 1×PBS. Absorbance was detected using a microplate reader at 450 nm. Absorbance values were normalized against the background and plotted as a % of the dose response effect versus the antibody dose (log scale) as shown in the graph. The EC50 (in ug/mL) was calculated for each condition.

[2] = molecular target: T1, Bovine Submaxillary Mucin (BSM); experiment: ELISA on BSM, OD against antibody concentration
[3] = molecular target: T1, Bovine Submaxillary Mucin (BSM); experiment: ELISA on BSM-coated wells
Procedure: as §1, §2

- EC50 [1]: 0.324 µg/mL and 0.457 µg/mL
- EC50 (read off the curve) [2]: ~0.2 µg/mL
B1: humanized anti-STn antibody clone V1 (antibody, V domains shown)
VH: QVQLQESGPGLVKPSQTLSLTCTVIGYSITSGYYWNWIRQPPGKGLEWIGSINYDGSNIYNPSLKSRVTISRDTSKNQFSLKLSSVTAADTAVYYCARGGDYWGQGTTVTVSS
VL: EIVLTQSPATLSLSPGERATLSCSASSSVSYMHWFQQKPGQAPRRWIYDTSKRATGVPARFSGSGSGTDYTLTISSLEPEDFAAYYCQQWSSDPPMLTFGGGTKLEIK
notes: Humanized variant of L2A5; Variable domains were cloned into Absolute Antibody vectors 'of the appropriate species and type' and expressed in HEK 293; also called CBS-V1

- EC50 [1]: 0.344 µg/mL and 0.449 µg/mL
B2: humanized anti-STn antibody clone V3 (antibody, V domains shown)
VH: B1 VH with T23S, S66D
VL: B1 VL
notes: Humanized variant of L2A5

- EC50 [1]: 0.0665 µg/mL and 0.137 µg/mL
- fold decrease in EC50 compared to V1 and V3 clones [3]: 3 fold
B3: humanized anti-STn antibody clone V2 (antibody, V domains shown)
VH: B1 VH with T23S, S66D
VL: B1 VL with E1D, T10I, P39S, R44K, R53L, T55S, P79A
notes: Humanized variant of L2A5; also called CBS-V2
